From patent US20230357348A1 (AstraZeneca / MedImmune, published 2023)
Starred links: 1 amine or outer side, 2 acyl side, 3 side chain; linkers in the order of their positions; H or OH if unused. Non-standard residues stand in square brackets, D forms with d. Groups on a side chain read outwards from the residue. Primed or numbered codes have the meaning given here. No end group written: not given here. *: point of attachment. C20 diacid = O=C(O)CCCCCCCCCCCCCCCCCCC(=O)*; C18 diacid = O=C(O)CCCCCCCCCCCCCCCCC(=O)*; γGlu = O=C(O)[C@H](CCC(=O)[*:2])N[*:1]; Stearoyl = CCCCCCCCCCCCCCCCCC(=O)*; Palmitoyl = CCCCCCCCCCCCCCCC(=O)*; αMeF = C[C@](N)(Cc1ccccc1)C(=O)O; Myristoyl = CCCCCCCCCCCCCC(=O)*; PEG2′ = polyethylene glycol 2; AEEA = NCCOCCOCC(=O)O; Aib = CC(C)(N)C(=O)O

Columns and labels:
[1] = biological target: human glucagon receptor (hGCGR) (human, UniProt P47871 26-477); experiment: cell-based or functional assay
human glucagon receptor (hGCGR), sequence (P47871 26-477): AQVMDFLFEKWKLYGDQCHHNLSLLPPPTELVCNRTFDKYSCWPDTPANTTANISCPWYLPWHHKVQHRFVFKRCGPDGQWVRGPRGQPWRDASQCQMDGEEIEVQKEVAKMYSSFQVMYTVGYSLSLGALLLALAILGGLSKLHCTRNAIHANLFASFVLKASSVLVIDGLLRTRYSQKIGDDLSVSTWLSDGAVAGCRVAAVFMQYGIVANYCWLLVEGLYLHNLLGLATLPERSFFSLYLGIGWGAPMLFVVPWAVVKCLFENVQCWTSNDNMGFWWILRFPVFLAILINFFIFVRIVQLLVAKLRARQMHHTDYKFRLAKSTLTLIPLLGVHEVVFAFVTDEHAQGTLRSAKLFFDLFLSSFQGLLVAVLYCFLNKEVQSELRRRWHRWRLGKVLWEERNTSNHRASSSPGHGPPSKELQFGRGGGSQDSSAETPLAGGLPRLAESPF

[2] = biological target: human GLP-1 receptor (hGLP-1R) (human, UniProt P43220 24-463); experiment: cell-based or functional assay

Row | Binder | hGluc-R EC50 (pM) [1] [pM] | hGLP-1R EC50 (pM) [2] [pM]
1 | H[Aib]QGS[αMeF]TSDVSKILDSK([PEG2′-PEG2′-γGlu-γGlu-Palmitoyl])AAQD[αMeF]VQ[Aib]IINT-NH2 [Peptide 125] | 6.68 | 0.575
2 | HSQGS[αMeF]TSDVSK(Ac)[Aib]LDSK([PEG2′-PEG2′-γGlu-γGlu-Stearyl])AAQD[αMeF]VQ[Aib]IAN-NH2 [Peptide 110] | 48.5 | 0.627
3 | H[Aib]QGS[αMeF]TSDVSKILDSK([PEG2′-PEG2′-γGlu-Myristoyl])AAQD[αMeF]VQ[Aib]IINT-NH2 [Peptide 129] | 4.1 | 0.462
4 | HSQGS[αMeF]TSDVSKILDSK([PEG2′-PEG2′-γGlu-γGlu-Palmitoyl])AAQD[αMeF]VQ[Aib]IINT-NH2 [Peptide 118] | 1.2 | 1.07
5 | H[Aib]HGS[αMeF]TSDVSK[αMeF]LDSK([AEEA-AEEA-γGlu-C18 diacid])AARDFVQ[Aib]IANT-NH2 (N-terminus assumed; SMILES CC[C@H](C)[C@H](NC(=O)C(C)(C)NC(=O)[C@H](CCC(N)=O)NC(=O)[C@@H](NC(=O)[C@H](Cc1ccccc1)NC(=O)[C@H](CC(=O)O)NC(=O)[C@H](CCCNC(=N)N)NC(=O)[C@H](C)NC(=O)[C@H](C)NC(=O)[C@H](CCCCNC(=O)COCCOCCNC(=O)COCCOCCNC(=O)CC[C@H](NC(=O)CCCCCCCCCCCCCCCCC(=O)O)C(=O)O)NC(=O)[C@H](CO)NC(=O)[C@H](CC(=O)O)NC(=O)[C@H](CC(C)C)NC(=O)[C@](C)(Cc1ccccc1)NC(=O)[C@H](CCCCN)NC(=O)[C@H](CO)NC(=O)[C@@H](NC(=O)[C@H](CC(=O)O)NC(=O)[C@H](CO)NC(=O)[C@@H](NC(=O)[C@](C)(Cc1ccccc1)NC(=O)[C@H](CO)NC(=O)CNC(=O)[C@H](Cc1c[nH]cn1)NC(=O)C(C)(C)NC(=O)[C@@H](N)Cc1c[nH]cn1)[C@@H](C)O)C(C)C)C(C)C)C(=O)N[C@@H](C)C(=O)N[C@@H](CC(N)=O)C(=O)N[C@H](C(N)=O)[C@@H](C)O) [Peptide 12] | 47.7 | 14.5
6 | HSQGS[αMeF]TSDVSKILDSK([PEG2′-PEG2′-γGlu-γGlu-Myristoyl])AAQD[αMeF]VQ[Aib]IINT-NH2 [Peptide 119] | 1.7 | 1.39
7 | HSQGS[αMeF]TSDVSKILDSK([PEG2′-PEG2′-γGlu-Myristoyl])AAQD[αMeF]VQ[Aib]IINT-NH2 [Peptide 122] | 0.857 | 1.42
8 | HSQGS[αMeF]TSDVSK(Ac)[Aib]LDSK([AEEA-AEEA-γGlu-C18 diacid])AAQD[αMeF]VQ[Aib]IAN-NH2 (N-terminus assumed; SMILES CC[C@H](C)[C@H](NC(=O)C(C)(C)NC(=O)[C@H](CCC(N)=O)NC(=O)[C@@H](NC(=O)[C@](C)(Cc1ccccc1)NC(=O)[C@H](CC(=O)O)NC(=O)[C@H](CCC(N)=O)NC(=O)[C@H](C)NC(=O)[C@H](C)NC(=O)[C@H](CCCCNC(=O)COCCOCCNC(=O)COCCOCCNC(=O)CC[C@H](NC(=O)CCCCCCCCCCCCCCCCC(=O)O)C(=O)O)NC(=O)[C@H](CO)NC(=O)[C@H](CC(=O)O)NC(=O)[C@H](CC(C)C)NC(=O)C(C)(C)NC(=O)[C@H](CCCCNC(C)=O)NC(=O)[C@H](CO)NC(=O)[C@@H](NC(=O)[C@H](CC(=O)O)NC(=O)[C@H](CO)NC(=O)[C@@H](NC(=O)[C@](C)(Cc1ccccc1)NC(=O)[C@H](CO)NC(=O)CNC(=O)[C@H](CCC(N)=O)NC(=O)[C@H](CO)NC(=O)[C@@H](N)Cc1c[nH]cn1)[C@@H](C)O)C(C)C)C(C)C)C(=O)N[C@@H](C)C(=O)N[C@@H](CC(N)=O)C(N)=O) [Peptide 109] | > 26800 | 698
9 | HSQGS[αMeF]TSDVSKILDSK([PEG2′-PEG2′-γGlu-Palmitoyl])AAQD[αMeF]VQ[Aib]IINT-NH2 [Peptide 121] | 1.2 | 1.5
10 | H[Aib]QGS[αMeF]TSDVSKILDSK([PEG2′-PEG2′-γGlu-Palmitoyl])AAQD[αMeF]VQ[Aib]IINT-NH2 [Peptide 128] | 4.7 | 0.788
11 | H[Aib]QGS[αMeF]TSDVSKILDSK([PEG2′-PEG2′-γGlu-Stearoyl])AAQD[αMeF]VQ[Aib]IINT-NH2 [Peptide 127] | 12.6 | 0.998
12 | H[Aib]HGS[αMeF]TSDVSK[αMeF]LDSK([AEEA-AEEA-γGlu-γGlu-C20 diacid])AARD[αMeF]VQ[Aib]IANT-NH2 (N-terminus assumed; SMILES CC[C@H](C)[C@H](NC(=O)C(C)(C)NC(=O)[C@H](CCC(N)=O)NC(=O)[C@@H](NC(=O)[C@](C)(Cc1ccccc1)NC(=O)[C@H](CC(=O)O)NC(=O)[C@H](CCCNC(=N)N)NC(=O)[C@H](C)NC(=O)[C@H](C)NC(=O)[C@H](CCCCNC(=O)COCCOCCNC(=O)COCCOCCNC(=O)CC[C@H](NC(=O)CC[C@H](NC(=O)CCCCCCCCCCCCCCCCCCC(=O)O)C(=O)O)C(=O)O)NC(=O)[C@H](CO)NC(=O)[C@H](CC(=O)O)NC(=O)[C@H](CC(C)C)NC(=O)[C@](C)(Cc1ccccc1)NC(=O)[C@H](CCCCN)NC(=O)[C@H](CO)NC(=O)[C@@H](NC(=O)[C@H](CC(=O)O)NC(=O)[C@H](CO)NC(=O)[C@@H](NC(=O)[C@](C)(Cc1ccccc1)NC(=O)[C@H](CO)NC(=O)CNC(=O)[C@H](Cc1c[nH]cn1)NC(=O)C(C)(C)NC(=O)[C@@H](N)Cc1c[nH]cn1)[C@@H](C)O)C(C)C)C(C)C)C(=O)N[C@@H](C)C(=O)N[C@@H](CC(N)=O)C(=O)N[C@H](C(N)=O)[C@@H](C)O) [Peptide 14] | 462 | 93.8
13 | HSQGS[αMeF]TSDVSKILDSKAAQD[αMeF]VQ[Aib]IAN-NH2 (not fully specified (residue 17)) [Peptide 111] | 2.09 | 1.92
14 | HSQGS[αMeF]TSDVSK[Aib]LDSK([AEEA-AEEA-γGlu-C18 diacid])AAQD[αMeF]VQ[Aib]IAN-NH2 (N-terminus assumed; SMILES CC[C@H](C)[C@H](NC(=O)C(C)(C)NC(=O)[C@H](CCC(N)=O)NC(=O)[C@@H](NC(=O)[C@](C)(Cc1ccccc1)NC(=O)[C@H](CC(=O)O)NC(=O)[C@H](CCC(N)=O)NC(=O)[C@H](C)NC(=O)[C@H](C)NC(=O)[C@H](CCCCNC(=O)COCCOCCNC(=O)COCCOCCNC(=O)CC[C@H](NC(=O)CCCCCCCCCCCCCCCCC(=O)O)C(=O)O)NC(=O)[C@H](CO)NC(=O)[C@H](CC(=O)O)NC(=O)[C@H](CC(C)C)NC(=O)C(C)(C)NC(=O)[C@H](CCCCN)NC(=O)[C@H](CO)NC(=O)[C@@H](NC(=O)[C@H](CC(=O)O)NC(=O)[C@H](CO)NC(=O)[C@@H](NC(=O)[C@](C)(Cc1ccccc1)NC(=O)[C@H](CO)NC(=O)CNC(=O)[C@H](CCC(N)=O)NC(=O)[C@H](CO)NC(=O)[C@@H](N)Cc1c[nH]cn1)[C@@H](C)O)C(C)C)C(C)C)C(=O)N[C@@H](C)C(=O)N[C@@H](CC(N)=O)C(N)=O) [Peptide 1] | > 27100 | 3200
15 | HSQGS[αMeF]TSDVSKILDSK([PEG2′-PEG2′-γGlu-Stearoyl])AAQD[αMeF]VQ[Aib]IINT-NH2 [Peptide 120] | 2.62 | 1.81
16 | H[Aib]HGS[αMeF]TSDVSK[αMeF]LDSK([AEEA-AEEA-γGlu-C18 diacid])AARD[αMeF]VQ[Aib]IANT-NH2 (N-terminus assumed; SMILES CC[C@H](C)[C@H](NC(=O)C(C)(C)NC(=O)[C@H](CCC(N)=O)NC(=O)[C@@H](NC(=O)[C@](C)(Cc1ccccc1)NC(=O)[C@H](CC(=O)O)NC(=O)[C@H](CCCNC(=N)N)NC(=O)[C@H](C)NC(=O)[C@H](C)NC(=O)[C@H](CCCCNC(=O)COCCOCCNC(=O)COCCOCCNC(=O)CC[C@H](NC(=O)CCCCCCCCCCCCCCCCC(=O)O)C(=O)O)NC(=O)[C@H](CO)NC(=O)[C@H](CC(=O)O)NC(=O)[C@H](CC(C)C)NC(=O)[C@](C)(Cc1ccccc1)NC(=O)[C@H](CCCCN)NC(=O)[C@H](CO)NC(=O)[C@@H](NC(=O)[C@H](CC(=O)O)NC(=O)[C@H](CO)NC(=O)[C@@H](NC(=O)[C@](C)(Cc1ccccc1)NC(=O)[C@H](CO)NC(=O)CNC(=O)[C@H](Cc1c[nH]cn1)NC(=O)C(C)(C)NC(=O)[C@@H](N)Cc1c[nH]cn1)[C@@H](C)O)C(C)C)C(C)C)C(=O)N[C@@H](C)C(=O)N[C@@H](CC(N)=O)C(=O)N[C@H](C(N)=O)[C@@H](C)O) [Peptide 13] | 44 | 15.9
